Measured values reported in patent publication US20060233704A1, “Prochelator for the preparation of radiometal labeled molecules having improved biological properties” (priority 2000, published 2006).

Type: physicochemical
Procedure: In addition, the stability is higher. The reaction of ^90Y-DOTATOC or ^90Y-DOTAGA at 37° C. with the chelator DTPA results in ^90Y-DTPA.

**Q.** For `C[C@@H](O)[C@@H]1NC(=O)[C@H](CCCCN)NC(=O)[C@@H](Cc2c[nH]c3ccccc23)NC(=O)[C@H](Cc2ccc(O)cc2)NC(=O)[C@@H](NC(=O)[C@@H](Cc2ccccc2)NC(=O)CCC(C(=O)O)N2CCN(CC(=O)O)CCN(CC(=O)O)CCN(CC(=O)O)CC2)CSSC[C@@H](C(=O)N[C@H](CO)[C@@H](C)O)NC1=O` (single isomer, unassigned) [DOTAGA], which half-life is on record?
**A.** Its half-life is 79 h.
